Measurements taken from article PMC7412702.

B1: HA-tagged wild-type human ZP1 [human] / MYC-tagged human wild-type ZP3 [human] (parent)
chain 1: RWLQPDPGLPGLRHSYDCGIKGMQLLVFPRPGQTLRFKVVDEFGNRFDVNNCSICYHWVTSRPQEPAVFSADYRGCHVLEKDGRFHLRVFMEAVLPNGRVDVAQDATLICPKPDPSRTLDSQLAPPAMFSVSTPQTLSFLPTSGHTSQGSGHAFPSPLDPGHSSVHPTPALPSPGPGPTLATLAQPHWGTLEHWDVNKRDYIGTHLSQEQCQVASGHLPCIVRRTSKEACQQAGCCYDNTREVPCYYGNTATVQCFRDGYFVLVVSQEMALTHRITLANIHLAYAPTSCSPTQHTEAFVVFYFPLTHCGTTMQVAGDQLIYENWLVSGIHIQKGPQGSITRDSTFQLHVRCVFNASDFLPIQASIFPPPSPAPMTQPGPLRLELRIAKDETFSSYYGEDDYPIVRLLREPVHVEVRLLQRTDPNLVLLLHQCWGAPSANPFQQPQWPILSDGCPFKGDSYRTQMVALDGATPFQSHYQRFTVATFALLDSGSQRALRGLVYLFCSTSACHTSGLETCSTACSTGTTRQ
chain 2: QPLWLLQGGASHPETSVQPVLVECQEATLMVMVSKDLFGTGKLIRAADLTLGPEACEPLVSMDTEDVVRFEVGLHECGNSMQVTDDALVYSTFLLHDPRPVGNLSIVRTNRAEIPIECRYPRQGNVSSQAILPTWLPFRTTVFSEEKLTFSLRLMEENWNAEKRSPTFHLGDAAHLQAEIHTGSHVPLRLFVDHCVATPTPDQNASPYHTIVDFHGCLVDGLTDASSAFKVPRPGPDTLQFTVDVFHFANDSRNMIYITCHLKVTLAEQDPDELNKACSFSKPSNSWFPVEGSADICQCCNKGDCGTPSHSRRQPHVMSQWSRSASRN
B2: MYC-tagged human wild-type ZP3 [human] / HA-tagged wild-type human ZP1 [human] (parent)
chain 1: B1 chain 2
chain 2: B1 chain 1

Variants of: B1
Experiment: co-IP (IP: anti-HA, blot anti-MYC), densitometry
Conditions: with MYC-tagged human wild-type ZP3 [human]; HeLa cells; mutant lane co-transfected with HA-ZP1WT + HA-ZP1R109H + MYC-ZP3 (imitating heterozygous state); parent lane HA-ZP1WT + MYC-ZP3; parent: 1; read off a plot; scale: relative protein level

Row | response | Variant
1 | 0.22 | chain 1 R84H

Variants of: B2
Experiment: co-IP (IP: MYC as labelled in the image, blot anti-HA), densitometry
Conditions: with HA-tagged wild-type human ZP1 [human]; HeLa cells; mutant lane co-transfected with MYC-ZP3WT + MYC-ZP3A134T + HA-ZP1 (imitating heterozygous state); parent lane MYC-ZP3WT + HA-ZP1; parent: 1; read off a plot; scale: relative protein level

Row | response | Variant
2 | 0.87 | chain 1 A112T
